Experimental findings from IntAct's records for PubMed 20696164 are described below.

B1: E3 ubiquitin-protein ligase SH3RF1 (Homo sapiens), Q7Z6J0 (parent)
chain: MDESALLDLLECPVCLERLDASAKVLPCQHTFCKRCLLGIVGSRNELRCPECRTLVGSGVEELPSNILLVRLLDGIKQRPWKPGPGGGSGTNCTNALRSQSSTVANCSSKDLQSSQGGQQPRVQSWSPPVRGIPQLPCAKALYNYEGKEPGDLKFSKGDIIILRRQVDENWYHGEVNGIHGFFPTNFVQIIKPLPQPPPQCKALYDFEVKDKEADKDCLPFAKDDVLTVIRRVDENWAEGMLADKIGIFPISYVEFNSAAKQLIEWDKPPVPGVDAGECSSAAAQSSTAPKHSDTKKNTKKRHSFTSLTMANKSSQASQNRHSMEISPPVLISSSNPTAAARISELSGLSCSAPSQVHISTTGLIVTPPPSSPVTTGPSFTFPSDVPYQAALGTLNPPLPPPPLLAATVLASTPPGATAAAAAAGMGPRPMAGSTDQIAHLRPQTRPSVYVAIYPYTPRKEDELELRKGEMFLVFERCQDGWFKGTSMHTSKIGVFPGNYVAPVTRAVTNASQAKVPMSTAGQTSRGVTMVSPSTAGGPAQKLQGNGVAGSPSVVPAAVVSAAHIQTSPQAKVLLHMTGQMTVNQARNAVRTVAAHNQERPTAAVTPIQVQNAAGLSPASVGLSHHSLASPQPAPLMPGSATHTAAISISRASAPLACAAAAPLTSPSITSASLEAEPSGRIVTVLPGLPTSPDSASSACGNSSATKPDKDSKKEKKGLLKLLSGASTKRKPRVSPPASPTLEVELGSAELPLQGAVGPELPPGGGHGRAGSCPVDGDGPVTTAVAGAALAQDAFHRKASSLDSAVPIAPPPRQACSSLGPVLNESRPVVCERHRVVVSYPPQSEAELELKEGDIVFVHKKREDGWFKGTLQRNGKTGLFPGSFVENI
B2: E3 ubiquitin-protein ligase SH3RF3 (Homo sapiens), Q8TEJ3 (parent)
chain: MLLGASWLCASKAAAAAAQSEGDEDRPGERRRRRAAATAAGAGEDMDESSLLDLLECSVCLERLDTTAKVLPCQHTFCRRCLESIVCSRHELRCPECRILVGCGVDELPANILLVRLLDGIRQRPRAGTSPGGSPPARPIPGQSAAPTLAGGGGGAAGSTPGSPVFLSAAAGSTAGSLRELATSRTAPAAKNPCLLPYGKALYSYEGKEPGDLKFNKGDIIVLRRKVDEQWYHGELHGTQGFLPASYIQCIQPLPHAPPQGKALYDFEMKDKDQDKDCLTFTKDEILTVLRRVDENWAEGMLGDKIGIFPLLYVELNDSAKQLIEMDKPCPAAASSCNASLPSDSGAVASVAPSPTLSSSGAVSAFQRRVDGKKNTKKRHSFTALSVTHRSSQAASHRHSMEISAPVLISSSDPRAAARIGDLAHLSCAAPTQDVSSSAGSTPTAVPRAASVSGEQGTPPKVQLPLNVYLALYAYKPQKSDELELHKGEMYRVLEKCQDGWFKGASLRTGVSGVFPGNYVTPVSRVPAGGAGPPRNNVVGGSPLAKGITTTMHPGSGSLSSLATATRPALPITTPQAHAQHPTASPPTGSCLRHSAQPTASQARSTISTAAHSAAQAQDRPTATVSPLRTQNSPSRLPATSLRPHSVVSPQHSHQPPVQMCPRPAIPLTSAASAITPPNVSAANLNGEAGGGPIGVLSTSSPTNTGCKLDEKKSEKKEKKSGLLKLLAGASTKKKSRSPPSVSPTHDPQVAVDALLQGAVGPEVSSLSIHGRAGSCPIESEMQGAMGMEPLHRKAGSLDLNFTSPSRQAPLSMAAIRPEPKLLPRERYRVVVSYPPQSEAEIELKEGDIVFVHKKREDGWYKGTLQRNGRTGLFPGSFVESF

The variants in one experiment derive from B1. The settings on record: with ubc_human UBC.
With C28A, the “effect of a mutation on the interaction” value is given as “decreasing interaction”. For the variant H30A, the “effect of a mutation on the interaction” value is recorded as “decreasing interaction”.

The variants in another experiment derive from B2. Particulars: with ubc_human UBC.
In the case of C73A, the “effect of a mutation on the interaction” value is listed as “decreasing interaction”.

H75A: the “effect of a mutation on the interaction” value is on record as “decreasing interaction”.

In the next experiment the parent is B2. The settings on record: with rac1_human RAC1, P63000.
For the variant I403N, the “effect of a mutation on the interaction” value is recorded as “disrupting interaction”. On to P406A, for which the “effect of a mutation on the interaction” value was “disrupting interaction”. The same measure, in the same setting: for S404P the value was “disrupting interaction”.

Another experiment covers variants of B2. The settings on record: with rac1_human RAC1, P63000. The source holds these as a separate data set.
Take L385A: the “effect of a mutation on the interaction” value is given as “decreasing interaction”.

The variants in another experiment derive from B2. Particulars: with rac1_human RAC1, P63000. The source holds these as a separate data set.
For the variant P414A, the “effect of a mutation on the interaction” value was “decreasing interaction”.
